# Laboratory results as given in patent publication US20250346657A1 (INTERVET, published 2025).
# B1: human-feline chimeric Fulranumab (antibody)
# heavy: EVQLVESGGGLVQPGGSLRLSCAASGFTLRSYSMNWVRQAPGKGLEWVSYISRSSHTIFYADSVKGRFTISRDNAKNSLYLQMDSLRDEDTAMYYCARVYSSGWHVSDYFDYWGQGILVTVSSASTTAPSVFPLAPSCGTTSGATVALACLVLGYFPEPVTVSWNSGALTSGVHTFPAVLQASGLYSLSSMVTVPSSRWLSDTFTCNVAHPPSNTKVDKTVRKTDHPPGPKPCDCPKCPPPEMLGGPSIFIFPPKPKDTLSISRTPEVTCLVVALGPDDSDVQITWFVDNTQVYTAKTSPREEQFASTYRVVSVLPILHQDWLKGKEFKCKVNSKSLPSPIERTISKAKGQPHEPQVYVLPPAQEELSRNKVSVTCLIKSFHPPDIAVEWEITGQPEPENNYRTTPPQLDSDGTYFVYSKLSVDRSHWQRGNTYTCSVSHEALHSHHTQKSLTQSPGK
# light: AIQLTQSPSSLSASVGDRVTITCRASQGISSALAWYQQKPGKAPKLLIYDASSLESGVPSRFSGSGSGTDFTLTISSLQPEDFATYYCQQFNSYPLTFGGGTKVEIKRSDAQPSVFLFQPSLDELHTGSASIVCILNDFYPKEVNVKWKVDGVVQNKGIQESTTEQNSKDSTYSLSSTLTMSSTEYQSHEKFSCEVTHKSLASTLVKSFNRSECQRE
# notes: Chains from the 'List of heavy and light chains to make human-feline chimeric and felinized antibodies'; also called Ful Chimeric; Ful Chim
# Molecular target: T1, feline NGF (feline, UniProt A0ABI7YSK6 122-241)
# T1 construct: domain: C-terminal portion; also called fNGF; feline beta-NGF
# Assay: ELISA, feline NGF
binder,measurement,value
B1,EC50,18 to 19 pM
